Experimental data taken from patent US20100178280.

T1: acetylated p53 peptides (p53-382/diAc), P04637
T1 chain: RHKK


Target: T1, acetylated p53 peptides (p53-382/diAc), …

Row | Protein | deacetylation of p53 peptides in vitro (fluorometric deacetylation assay) | deacetylation of acetylated p53 peptides in vitro (fluorometric deacetylation assay)
1 | recombinant mouse Sirt1 protein (protein) MADEVALALQAAGSPSAAAAMEAASQPADEPLRKRPRRDGPGLGRSPGEPSAAVAPAAAGCEAASAAAPAALWREAAGAAASAEREAPATAVAGDGDNGSGLRREPRAADDFDDDEGEEEDEAAAAAAAAAIGYRDNLLLTDGLLTNGFHSCESDDDDRTSHASSSDWTPRPRIGPYTFVQQHLMIGTDPRTILKDLLPETIPPPELDDMTLWQIVINILSEPPKRKKRKDINTIEDAVKLLQECKKIIVLTGAGVSVSCGIPDFRSRDGIYARLAVDFPDLPDPQAMFDIEYFRKDPRPFFKFAKEIYPGQFQPSLCHKFIALSDKEGKLLRNYTQNIDTLEQVAGIQRILQCHGSFATASCLICKYKVDCEAVRGDIFNQVVPRCPRCPADEPLAIMKPEIVFFGENLPEQFHRAMKYDKDEVDLLIVIGSSLKVRPVALIPSSIPHEVPQILINREPLPHLHFDVELLGDCDVIINELCHRLGGEYAKLCCNPVKLSEITEKPPRPQKELVHLSELPPTPLHISEDSSSPERTVPQDSSVIATLVDQATNNNVNDLEVSESSCVEEKPQEVQTSRNVENINVENPDFKAVGSSTADKNERTSVAETVRKCWPNRLAKEQISKRLEGNQYLFVPPNRYIFHGAEVYSDSEDDVLSSSSCGSNSDSGTCQSPSLEEPLEDESEIEEFYNGLEDDTERPECAGGSGFGADGGDQEVVNEAIATRQELTDVNYPSDKS | Sirt7 and Sirt1 deacetylate p53 peptides in vitro | –
2 | recombinant mouse Sirt7 protein (protein) MAAGGGLSRSERKAAERVRRLREEQQRERLRQVSRILRKAAAERSAEEGRLLAESEDLVTELQGRSRRREGLKRRQEEVCDDPEELRRKVRELAGAVRSARHLVVYTGAGISTAASIPDYRGPNGVWTLLQKGRPVSAADLSEAEPTLTHMSITRLHEQKLVQHVVSQNCDGLHLRSGLPRTAISELHGNMYIEVCTSCIPNREYVRVFDVTERTALHRHLTGRTCHKCGTQLRDTIVHFGERGTLGQPLNWEAATEAASKADTILCLGSSLKVLKKYPRLWCMTKPPSRRPKLYIVNLQWTPKDDWAALKLHGKCDDVMQLLMNELGLEIPVYNRWQDPIFSLATPLRAGEEGSHSRKSLCRSREEAPPGDQSDPLASAPPILGGWFGRGCAKRAKRKKVA | Sirt7 and Sirt1 deacetylate p53 peptides in vitro | p53 acetylated peptides were efficiently deacetylated by Sirt7 in vitro
